From the nanobody polyreactivity screen of Harvey et al. (2022)

Experiment: yeast display, Sf9 membrane polyspecificity reagent, FACS + sequencing; frameworks hold sequencing errors
Method in brief: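 Using colony PCR, genes from sorted yeast display clones were amplified, then sequenced on MiSeq at 2 × 250 and filtered by CDR length. The clones had been stained with 10% biotinylated, detergent-solubilized Sf9 membrane reagent for 1 hour at 4 °C and sorted by FACS into low and high (top ~1%) gates on anti-HA and streptavidin fluorescence. Polyreactivity labels come from the gate of origin.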

QVQLVESGGGLVQAGGSLRLSCAASGFTFPDYAMGWYRQAPGKERELVAAITSSGGSTYYADSVKGRFTISRDNAKNTVYLQMNSLKPEDTAVYYCNAYISDDRYWSPAIEEDYWGQGTQVTVSS
polyreactivity (PSR sort gate): high polyreactivity

QVQLVESGGGLVQAGGSLRLSCAASGSTFVGNAMGWYRQAPGKERELVAAITGGGGSTYYADSVKGRFTISRDNAKNTVYLQMNSLKPEDTAVYSCARDRTDYYVWYVRYYYWGQGTQVTVSS
polyreactivity (PSR sort gate): low polyreactivity

QVQLVETGGGLVQAGGSLRLSCAASVRIFFVYAMGWYRQAPGKERELVAAITYDDGDTFYADSVKGRFTISRDNAKNTVYLQMNSLKPEDTAVYYCAAEGYSYIQSDLDYWGQGTQVTVSS
polyreactivity (PSR sort gate): high polyreactivity

QVQLVESWGGLVQAGGSLRLRFAASVRTFVSNAMGWYRQAPGKERELVARITGSGGNTYYADSVKGRFTISRDNEKNTVYLQMNSLKPEDTAVYYCNSDVFRKFGSPSGYKSHRYDYWGQGTQVTVSS
polyreactivity (PSR sort gate): low polyreactivity

QFQLVESGGGLVQAGGSLRLSCAASGSTLRLNVMGWYRQAPGKERELVARISRGCSTYYADSVKGRFTISRDNAKNTVYLQMNSLKPEDTAVYYCTAQSYPCVTPYSYWGQGTQVTVSS
polyreactivity (PSR sort gate): low polyreactivity

QVQLVESGGGLVQAGGSLRLSCAASGSILVGYAMGRYRLAPGKERELVAAISFSGGSTYYADSVKGRFTISRDNAKNTVYLQMNRLKQEDTAVYYCAAKRRVWIFYSSSDDYWGQGSQVTVSS
polyreactivity (PSR sort gate): low polyreactivity

QVQLVESGGGLVQAGGSLRLSCAASGTFYKYAMGWYRQAPGKERELVAAISWRGGRTYADSVKGRFTISRDNAKNTVYLQMNSLKPEDTAVYYCNKRFYPEHYYWGQGTQVTVSS
polyreactivity (PSR sort gate): high polyreactivity

QVHLVETGGGLVHAGGSLRLSCAASGFIFGVNAMGWYRQAPGKERELDAAITRNGGSTYYADSVKGRFTISRDYAKNTVYLQMNSLKPEDTAVYYCAKYVRRAPSSIDVDYWGQGTQVTVSS
polyreactivity (PSR sort gate): high polyreactivity

QVQLVESCGGLVQAGGSLRLSCAASGLIIRWYAMGWYRQAPGKERELVAAITRAGSTYYADSVKWRFTISRDNAKNTVYLQMNSLNPEDTAVYYCAADTNWSPGYIMYYRSDYWGQGTQVTVSS
polyreactivity (PSR sort gate): low polyreactivity

QVQIVESVGGLVQAGGSLRLSCAASGSTVERYAMGWYRKAPGKERELVARITWSGGSTYYADSVKGRFTISLDNAKNTVYVQMNSLKPEDTAVYYCNRDTRYPGYWRVFAKNNYWGQGTQVTVSS
polyreactivity (PSR sort gate): high polyreactivity

QVQLVESGGGLVQAGGSLRLTCAASGGTFQPNAMGGYRQAPGKERELVAAISWSDGSTYYADSVKGRFTISRDNAKNTVYLQMKSLKPVDTAVYYCAADFTYYDSPYRDYNYESWGQGTQVTVSS
polyreactivity (PSR sort gate): low polyreactivity

QDQLVESGGGLVQAGGSLRLSCAASGSIFRAYAMGRYRQPPGKERELVAAIIWTDGSTYYADSVKGRFTISRDNAKNTVYLQMNSLKPEDTAVYYCAKDSIARHNYWGQGTQVTLSS
polyreactivity (PSR sort gate): low polyreactivity

QVQHVESGGGLVQAGGSLRLSCAASRLTFTRNAMGWYRQAPGKERELVAAITRSSGSTYYADSVKGRFTISRDNAKNTVYLQMNSLKPEDTAVYYCNARRAAYYHRARELDYWGQGTQVTVSS
polyreactivity (PSR sort gate): high polyreactivity

QVQLVESGGGLVQAGGSLRLSCAASGRIFTRNAMGWYRQAPGKERELVATISAGGGRTSYADSVKGRFTISRDNAKNTVELQMNSLKPEDTAVYYCAARGQVGYYWGQGTQVTVSS
polyreactivity (PSR sort gate): high polyreactivity

QVQLVESGGGLVHAGGSHRLSCAASGTMGCYRQAPGKEMELVAAISQSGGSTYYADSVKGRFTISRDNAKNTVYLQMNSLKPEATAVYYCAVDPRYGHPRRDYWGQGTQVTVSS
polyreactivity (PSR sort gate): low polyreactivity

QVQLVESGGGLVQAGGSLRLSCAASGSTFYKYAMGWYRQAPGKERELVAAITRSGGSTYYADSVKGRFTISRDNAKNTVYLQMNSLKPEDTAVYYCNADRKSRSKGVGYDYWGQGTQVTVSS
polyreactivity (PSR sort gate): high polyreactivity

QVQLVESGGGLVQAGGSLRLSCAASGIIFVKNAMGWYRPAPGKERELVAAISDNADSTYYADSVKGRFTISRDNAKNTVYLQMNSLKPEDTAVYYCAADWVHRTWLFWYTKYDYWGQGTQVTVSS
polyreactivity (PSR sort gate): low polyreactivity

QVQLVESGGGLVQAGGSLRLSCAAYGSTFWANAMGWYRQAPGKERELVAAIRGTGGSTYADSVKGRFTISRDNAKNTVYLQMNSLKPEDTAVYYCNAKGRGWTAQYDYWGQGTQVTVSS
polyreactivity (PSR sort gate): low polyreactivity

QVQLVESGGGLVQAGGSLRLICAASGSTFEQYAMGWYRQAPGKERELVAAINRGGSTYYADSVKGRFTISRDNAKNTVYLQMNSLKPEDTAVYYCAVYAFVRYRSRYGYWGQGTQVTVSS
polyreactivity (PSR sort gate): high polyreactivity

QVQIVESGGGLVQAGGSLRLSCAASGSIFWFYAMGWSRQAPGKERELVAAITWNGGRTYYADSVKGRFTISRDNAKNTVYLQMNCLKPEDTAVYYCNKVSGYDVDYWGHGTQVTVSS
polyreactivity (PSR sort gate): high polyreactivity

QVQLVESGGGLVQAGGSLRLSCAASGSTFSYYAMGGYRQEPGKERELVAAISRGTRTYYADSVKGSFSISRDNAKNTVYLLMNSLKAEDTAVYYCAADLWYTRYYYWGQGTQVTVSS
polyreactivity (PSR sort gate): high polyreactivity

QVQLVESGGGLVQAGGSLRLSCAASGRIFQRYAMGWYRQAPGKERELVAAISSSGTTYYADSVKGRFTISRDNAKNTVYLQMNSLKPEDTAVYYCAATYYTSRISRRYGYWGQGTQVTVSS
polyreactivity (PSR sort gate): high polyreactivity

QVQLVESGGGLVQAGGSLRLSCAASGRTFLINAMGWYRQAPGKERELVAAINYGGGSTYYADSVKGRFTISRDNAKNTVYLQMKSLKPEDTAVYYCSTEYYDTYVGSYSYWGAKYGSWGQGTQVTVSS
polyreactivity (PSR sort gate): low polyreactivity

QVQLVESGGGLVQAGGSLRLSCAASGHIFYAYAMASYRQAPGKERELVASITYRGVSTYYADSVKARFTISRDNAKNTVYLQMHSLKPEDTAVYYCAAGRSRYLWFGRDFDYWGQGTQVTVSS
polyreactivity (PSR sort gate): low polyreactivity

QVQLVESGGGIVQAGGSLRLSCAASGFIFDQNAMGWYRQAPGKERELVAAISKRGGSTYYADSVKGRFTISRDNAKNTVYLQMNSLKREDTAVYYCATRSWGPYYYGYNHWGQGTQVTVSS
polyreactivity (PSR sort gate): high polyreactivity

QVQLVESGGGLVQAGGSLRLTCAASGIIFDKNAMGWYRQAPGKERELVAVITRGGSTYYADSVKGRFTISRDNAKNTVYLQMNSLKPEDTAVYYCAARYTPGFGYWGQGTQVTVSS
polyreactivity (PSR sort gate): high polyreactivity

QVQLVESGGGLVQAGGSLRLSCAASGSNFHPNAMGSCRQAPGKERELVAAITKSGGSTYYADSVKGRFTISRDNAKNTVYLQMNSRKPEDTAVYYCNALRYRRVGTLGYDYWGQATQVTVSS
polyreactivity (PSR sort gate): high polyreactivity

QVQLVDSGVGLVQAGGSHRLSCAASAFTIDGYDMGWYRQAPGKERELVAAISWDGGSTYYADSVKGRFTISRDNAKNTVYLQMNSLKPEDTAVYYCAAPFPFVSEFYRYDYWGQGTQVTVST
polyreactivity (PSR sort gate): low polyreactivity

QVQLVESGGGLVQAGGSLRLSCAASGRTFWSYAMGWYRQAPGKERELVAAIRTSDGITYYADSVKGRFTISRDNAKNTVYLQMNSLKPEDTAVYYCARDIRQYILYGRGDYWGQGTQVTVSS
polyreactivity (PSR sort gate): low polyreactivity

QVQLVESGGGLVHAGGSLRLSCAASGLIFRAYAMGWYRQAPGKERELVAAITSSSGSTYYADSVKGRFTISRDIAKNTVYLEMNSLKPEDTAVSYCNAYSTFGWYDYWGQGTQVTVSS
polyreactivity (PSR sort gate): low polyreactivity

QVQLVESGGGLVQAGGSLRLSCAASGRIFAFNAMGWYRQAPGKERELVAAITGRGGRTYYADSVKGRFTISRDNAKNTVYLQMNSLKPEDTAVYYCAAQRYINYDYWGQGTQVTVSS
polyreactivity (PSR sort gate): high polyreactivity

QVQLVESGGGLVQAGGSLRLSCAASGRIFKSYAMGWYRQAPGKEWELVAAISRGGRTNYADSVKGRFTISRDNAKNTVYLHMHSLKPEDTAVYYCAAYHRDRNSGFDYWGQGTQGTVSS
polyreactivity (PSR sort gate): high polyreactivity

QVPLQESGGGLVQAGGSLRLSCAASGTISYAPHMGWYRQAPGKERELVAGITIGGTTYYADSVKGRFTISRDNAKNTVYLQMNSLSPGDTAVYYCAAHSEQYTPFYYWGQGTQVTVSS
polyreactivity (PSR sort gate): low polyreactivity

QVQLVESGGGLVQAGGSLRLSCAASGRNFTSNTMGWYRQAPGTETELVAAITSSGGSMYYADSVKGRFTISRDNAKNTVYLQMNSLKPEDTAVYYCAADTIGYHYWYDYWGQGTQVTVSS
polyreactivity (PSR sort gate): low polyreactivity

QVHLVESGGGLVQAGGSLRLSCAASGSTIFLYMGWYRQAPGKERELVAAITVSGGSTYYADSVKGRFTISRDNAKNTVYLQMNSLKPEDTAVYYCNADWVLRYDYWGLGTQVTVSS
polyreactivity (PSR sort gate): low polyreactivity

QVQLVESGGGLVQAGGSLRLSCAASGRTFGIYVMGWYRQAPGKERELVAAIRGGGTTYYADSVKGRFTISRDNANNTVYLQMNSLKPEDTAVYYCAAESRYQRYDYWGQGTQVTVSS
polyreactivity (PSR sort gate): high polyreactivity

QVQLVESGGGLFQAGGSLRITCSPSGFIFHGYAMGWYRQAPGKERELVAAISTGTNTNYADSLKGRFTISRDNAKNTVYIQMNRLKPEDTAVYYCNARSADTWYTSRRFYYWGQGTQVTVSS
polyreactivity (PSR sort gate): low polyreactivity

QVQLVESGGGLVQAGGSLRITCAASGLTFPPNAMGWYRQAPGKERELVAAITRSGGSTYYADSVKGRFTISRDNAKNTFYLQMNSLKPEDTAVYYCAVYLPYSQRYVHYYYWGQGPQVTVSS
polyreactivity (PSR sort gate): high polyreactivity

HVQLVESGGGLVQAGGSLRLSCAASGNTFTEYAMGWYRQAPGKERELVASITGSGGSTYADSVRGRFTISRDNAKNTVYLQMNSLKPEDTAVYYCAKDPRYEYVGSEYGYWGQGTQVTVSS
polyreactivity (PSR sort gate): low polyreactivity

QVQLVESGGGLVQAGGSLRLSCAASGGTFGTNAMGWYRQAPGKERELVATIRTSVGSTYYADSVKGRFTISRDNAKNTVYLQMNSVKPEDTAVYYCAAGVPKNGQAGYDYWGQGTQVTVSS
polyreactivity (PSR sort gate): high polyreactivity

QVQLVESGGGLVQAGGSLRLSCADSGNTFYGYAMGWSRQSPGTERELVASITLSGDSTYYADSVKGRFTISRDNAKNTVYLQMNSLKPEDTAVYYCAGVYTYPLGYYHYTYDYWGQGTQVTVSS
polyreactivity (PSR sort gate): low polyreactivity

QVQLVESGGGLVQAGGSLRLSCAASGFIFNYYDMGWYRQAPGKERELVAAITYSVGSTYYADSVKGRFTISRDNAKNTVYLQMNSLKPEDTAVYYCNKDFLYGIYSYDYWGQGTQVTVSS
polyreactivity (PSR sort gate): high polyreactivity

QVQLVESGGGLVQAGGSLRLSCAASGYIFCGYAMGWYRQAPGKERELVAAINRGGSTYYADSVKGRFTISRDNAKNTVYLQMNSLKPEDTAVYYCAARLLYYNSIKRYYWGQGTQVTVSS
polyreactivity (PSR sort gate): high polyreactivity
